Measured values taken from patent US20250002588A1 (DIAGONAL THERAPEUTICS, published 2025).

Target: ALK-1/BMPR-2 receptor pair of the PathHunter U2Os dimerization cells (DiscoverX 93-0962C3) (UniProt P37023 22-503; Q13873 27-1038)
Experiment: cell-based or functional assay

Chain of ALK-1/BMPR-2 receptor pair of the PathHunter U2Os dimerization cells (DiscoverX 93-0962C3) (P37023 22-503, one chain of several): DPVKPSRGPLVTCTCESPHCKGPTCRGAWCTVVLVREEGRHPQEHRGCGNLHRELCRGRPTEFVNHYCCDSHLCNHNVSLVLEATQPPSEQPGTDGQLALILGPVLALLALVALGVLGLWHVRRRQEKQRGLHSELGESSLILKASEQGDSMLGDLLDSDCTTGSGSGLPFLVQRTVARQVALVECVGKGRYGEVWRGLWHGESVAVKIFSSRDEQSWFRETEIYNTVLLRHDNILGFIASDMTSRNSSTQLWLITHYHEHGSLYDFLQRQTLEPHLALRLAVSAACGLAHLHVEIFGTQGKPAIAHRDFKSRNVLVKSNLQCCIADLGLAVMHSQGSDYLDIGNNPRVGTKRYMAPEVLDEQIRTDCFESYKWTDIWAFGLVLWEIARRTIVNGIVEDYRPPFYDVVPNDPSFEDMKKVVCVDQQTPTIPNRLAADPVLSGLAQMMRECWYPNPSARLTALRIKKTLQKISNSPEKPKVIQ

B1: DGL903 (bispecific antibody)
chain 1: not shown
chain 2: EVQLLESGGGLVQPGGSLRLSCAASGFTFSDYYMTWIRQAPGKGLEWVSSISGGTTYYADSRKGRFTISRDNSENTLYLQMNSLRAEDTAVYYCARDFGVAGWFGQYGMDVWGQGTLVTVSSGGGGSGGGGSGGGGSQSVLTQPPSASGTPGQRVTISCTGSSSNIGAGYDVHWYQQLPGTAPKLLIYRSNQRPSGVPDRFSGSKSGTSASLAISGLRSEDEADYYCSSYAGNYNLVFGGGTKLTVLDKTHTCPPCPAPEAAGAPSVFLFPPKPKDTLMISRTPEVTCVVVDVSHEDPEVKFNWYVDGVEVHNAKTKPREEQYNSTYRVVSVLTVLHQDWLNGKEYKCKVSNKALPAPIEKTISKAKGQPREPQVCTLPPSRDELTKNQVSLSCAVKGFYPSDIAVEWESNGQPENNYKTTPPVLDSDGSFFLVSKLTVDKSRWQQGNVFSCSVMHEALHNHYTQKSLSLSPGWSHPQFEK
% Emax BMP9: 34%
Emax (RLU): 918000 RLU

B2: DGL913 (bispecific antibody)
chain 1: not shown
chain 2: EVQLLESGGGLVQPGGSLRLSCAASGFTFSDSYMSWIRQAPGKGLEWVSSISGGSTYYADSVKGRFTISRDNSENTLYLQMNSLRAEDTAVYYCARDFGVAGYFGQYGMDVWGQGTLVTVSSGGGGSGGGGSGGGGSQSVLTQPPSASGTPGQRVTISCTGSSSNIGAGYDVHWYQQLPGTAPKLLIYRSNQRPSGVPDRFSGSKSGTSASLAISGLRSEDEADYYCSSYAGNYNLVFGGGTKLTVLDKTHTCPPCPAPEAAGAPSVFLFPPKPKDTLMISRTPEVTCVVVDVSHEDPEVKFNWYVDGVEVHNAKTKPREEQYNSTYRVVSVLTVLHQDWLNGKEYKCKVSNKALPAPIEKTISKAKGQPREPQVCTLPPSRDELTKNQVSLSCAVKGFYPSDIAVEWESNGQPENNYKTTPPVLDSDGSFFLVSKLTVDKSRWQQGNVFSCSVMHEALHNHYTQKSLSLSPGWSHPQFEK
% Emax BMP9: 0%
Emax (RLU): 8420 RLU

B3: DGL908 (bispecific antibody)
chain 1: not shown
chain 2: EVQLLESGGGLVQPGGSLRLSCAASGFTFSDYYMTWIRQAPGKGLEWVSSISGGSTYYADSRKGRFTISRDNSENTLYLQMNSLRAEDTAVYYCARDFGVSGWFGQYGMDVWGQGTLVTVSSGGGGSGGGGSGGGGSQSVLTQPPSASGTPGQRVTISCTGSSSNIGAGYDVHWYQQLPGTAPKLLIYRSNQRPSGVPDRFSGSKSGTSASLAISGLRSEDEADYYCSSYAGNYNLVFGGGTKLTVLDKTHTCPPCPAPEAAGAPSVFLFPPKPKDTLMISRTPEVTCVVVDVSHEDPEVKFNWYVDGVEVHNAKTKPREEQYNSTYRVVSVLTVLHQDWLNGKEYKCKVSNKALPAPIEKTISKAKGQPREPQVCTLPPSRDELTKNQVSLSCAVKGFYPSDIAVEWESNGQPENNYKTTPPVLDSDGSFFLVSKLTVDKSRWQQGNVFSCSVMHEALHNHYTQKSLSLSPGWSHPQFEK
% Emax BMP9: 45%
Emax (RLU): 1.23e+06 RLU

B4: DGL912 (bispecific antibody)
chain 1: not shown
chain 2: EVQLLESGGGLVQPGGSLRLSCAASGFTFSDYYMNWIRQAPGKGLEWVSSISGGSTYYADSVKGRFTISRDNSENTLYLQMNSLRAEDTAVYYCARDFGVAGWFGQFGMDVWGQGTLVTVSSGGGGSGGGGSGGGGSQSVLTQPPSASGTPGQRVTISCTGSSSNIGAGYDVHWYQQLPGTAPKLLIYRSNQRPSGVPDRFSGSKSGTSASLAISGLRSEDEADYYCSSYAGNYNLVFGGGTKLTVLDKTHTCPPCPAPEAAGAPSVFLFPPKPKDTLMISRTPEVTCVVVDVSHEDPEVKFNWYVDGVEVHNAKTKPREEQYNSTYRVVSVLTVLHQDWLNGKEYKCKVSNKALPAPIEKTISKAKGQPREPQVCTLPPSRDELTKNQVSLSCAVKGFYPSDIAVEWESNGQPENNYKTTPPVLDSDGSFFLVSKLTVDKSRWQQGNVFSCSVMHEALHNHYTQKSLSLSPGWSHPQFEK
% Emax BMP9: 33%
Emax (RLU): 910000 RLU

B5: DGL907 (bispecific antibody)
chain 1: not shown
chain 2: EVQLLESGGGLVQPGGSLRLSCAASGFTFSDYYMNWIRQAPGKGLEWVSSISGGSTYYADSVKGRFTISRDNSENTLYLQMNSLRAEDTAVYYCARDFGVAGWFGYYGMDVWGQGTLVTVSSGGGGSGGGGSGGGGSQSVLTQPPSASGTPGQRVTISCTGSSSNIGAGYDVHWYQQLPGTAPKLLIYRSNQRPSGVPDRFSGSKSGTSASLAISGLRSEDEADYYCSSYAGNYNLVFGGGTKLTVLDKTHTCPPCPAPEAAGAPSVFLFPPKPKDTLMISRTPEVTCVVVDVSHEDPEVKFNWYVDGVEVHNAKTKPREEQYNSTYRVVSVLTVLHQDWLNGKEYKCKVSNKALPAPIEKTISKAKGQPREPQVCTLPPSRDELTKNQVSLSCAVKGFYPSDIAVEWESNGQPENNYKTTPPVLDSDGSFFLVSKLTVDKSRWQQGNVFSCSVMHEALHNHYTQKSLSLSPGWSHPQFEK
% Emax BMP9: 12%
Emax (RLU): 321000 RLU

B6: DGL905 (bispecific antibody)
chain 1: not shown
chain 2: EVQLLESGGGLVQPGGSLRLSCAASGFTFSDYYMNWIRQAPGKGLEWVSSISGGSTYYADSVKGRFTISRDNSENTLYLQMNSLRAEDTAVYYCARDFGVAGWFGQFGMDVWGQGTLVTVSSGGGGSGGGGSGGGGSQSVLTQPPSASGTPGQRVTISCTGSSSNIGAGYDVHWYQQLPGTAPKLLIYRSNQRPSGVPDRFSGSKSGTSASLAISGLRSEDEADYYCSSYAGNYNLVFGGGTKLTVLDKTHTCPPCPAPEAAGAPSVFLFPPKPKDTLMISRTPEVTCVVVDVSHEDPEVKFNWYVDGVEVHNAKTKPREEQYNSTYRVVSVLTVLHQDWLNGKEYKCKVSNKALPAPIEKTISKAKGQPREPQVCTLPPSRDELTKNQVSLSCAVKGFYPSDIAVEWESNGQPENNYKTTPPVLDSDGSFFLVSKLTVDKSRWQQGNVFSCSVMHEALHNHYTQKSLSLSPGWSHPQFEK
% Emax BMP9: 36%
Emax (RLU): 972000 RLU

B7: DGL910 (bispecific antibody)
chain 1: not shown
chain 2: EVQLLESGGGLVQPGGSLRLSCAASGFTFSDYYMTWIRQAPGKGLEWVSSISGGTTYYADSRKGRFTISRDNSENTLYLQMNSLRAEDTAVYYCARDFGVAGWFGQYGMDVWGQGTLVTVSSGGGGSGGGGSGGGGSQSVLTQPPSASGTPGQRVTISCTGSSSNIGAGYDVHWYQQLPGTAPKLLIYRSNQRPSGVPDRFSGSKSGTSASLAISGLRSEDEADYYCSSYAGNYNLVFGGGTKLTVLDKTHTCPPCPAPEAAGAPSVFLFPPKPKDTLMISRTPEVTCVVVDVSHEDPEVKFNWYVDGVEVHNAKTKPREEQYNSTYRVVSVLTVLHQDWLNGKEYKCKVSNKALPAPIEKTISKAKGQPREPQVCTLPPSRDELTKNQVSLSCAVKGFYPSDIAVEWESNGQPENNYKTTPPVLDSDGSFFLVSKLTVDKSRWQQGNVFSCSVMHEALHNHYTQKSLSLSPGWSHPQFEK
% Emax BMP9: 49%
Emax (RLU): 1.33e+06 RLU

B8: DGL906 (bispecific antibody)
chain 1: not shown
chain 2: EVQLLESGGGLVQPGGSLRLSCAASGFTFSDSYMSWIRQAPGKGLEWVSSISGGSTYYADSVKGRFTISRDNSENTLYLQMNSLRAEDTAVYYCARDFGVAGYFGQYGMDVWGQGTLVTVSSGGGGSGGGGSGGGGSQSVLTQPPSASGTPGQRVTISCTGSSSNIGAGYDVHWYQQLPGTAPKLLIYRSNQRPSGVPDRFSGSKSGTSASLAISGLRSEDEADYYCSSYAGNYNLVFGGGTKLTVLDKTHTCPPCPAPEAAGAPSVFLFPPKPKDTLMISRTPEVTCVVVDVSHEDPEVKFNWYVDGVEVHNAKTKPREEQYNSTYRVVSVLTVLHQDWLNGKEYKCKVSNKALPAPIEKTISKAKGQPREPQVCTLPPSRDELTKNQVSLSCAVKGFYPSDIAVEWESNGQPENNYKTTPPVLDSDGSFFLVSKLTVDKSRWQQGNVFSCSVMHEALHNHYTQKSLSLSPGWSHPQFEK
% Emax BMP9: -2%
Emax (RLU): -41100 RLU

B9: DGL911 (bispecific antibody)
chain 1: not shown
chain 2: EVQLLESGGGLVQPGGSLRLSCAASGFTFSDYWMTWIRQAPGKGLEWVSSISGGTTYYADSRKGRFTISRDNSENTLYLQMNSLRAEDTAVYYCARDFGVSGWFGQYGMDVWGQGTLVTVSSGGGGSGGGGSGGGGSQSVLTQPPSASGTPGQRVTISCTGSSSNIGAGYDVHWYQQLPGTAPKLLIYRSNQRPSGVPDRFSGSKSGTSASLAISGLRSEDEADYYCSSYAGNYNLVFGGGTKLTVLDKTHTCPPCPAPEAAGAPSVFLFPPKPKDTLMISRTPEVTCVVVDVSHEDPEVKFNWYVDGVEVHNAKTKPREEQYNSTYRVVSVLTVLHQDWLNGKEYKCKVSNKALPAPIEKTISKAKGQPREPQVCTLPPSRDELTKNQVSLSCAVKGFYPSDIAVEWESNGQPENNYKTTPPVLDSDGSFFLVSKLTVDKSRWQQGNVFSCSVMHEALHNHYTQKSLSLSPGWSHPQFEK
% Emax BMP9: 19%
Emax (RLU): 521000 RLU

B10: DGL904 (bispecific antibody)
chain 1: not shown
chain 2: EVQLLESGGGLVQPGGSLRLSCAASGFTFSDYWMTWIRQAPGKGLEWVSSISGGTTYYADSRKGRFTISRDNSENTLYLQMNSLRAEDTAVYYCARDFGVSGWFGQYGMDVWGQGTLVTVSSGGGGSGGGGSGGGGSQSVLTQPPSASGTPGQRVTISCTGSSSNIGAGYDVHWYQQLPGTAPKLLIYRSNQRPSGVPDRFSGSKSGTSASLAISGLRSEDEADYYCSSYAGNYNLVFGGGTKLTVLDKTHTCPPCPAPEAAGAPSVFLFPPKPKDTLMISRTPEVTCVVVDVSHEDPEVKFNWYVDGVEVHNAKTKPREEQYNSTYRVVSVLTVLHQDWLNGKEYKCKVSNKALPAPIEKTISKAKGQPREPQVCTLPPSRDELTKNQVSLSCAVKGFYPSDIAVEWESNGQPENNYKTTPPVLDSDGSFFLVSKLTVDKSRWQQGNVFSCSVMHEALHNHYTQKSLSLSPGWSHPQFEK
% Emax BMP9: 17%
Emax (RLU): 475000 RLU

B11: DGL909 (bispecific antibody)
chain 1: not shown
chain 2: EVQLLESGGGLVQPGGSLRLSCAASGFTFSDYWMTWIRQAPGKGLEWVSSISGGSTYYADSRKGRFTISRDNSENTLYLQMNSLRAEDTAVYYCARDFGVAGWFGQYGMDVWGQGTLVTVSSGGGGSGGGGSGGGGSQSVLTQPPSASGTPGQRVTISCTGSSSNIGAGYDVHWYQQLPGTAPKLLIYRSNQRPSGVPDRFSGSKSGTSASLAISGLRSEDEADYYCSSYAGNYNLVFGGGTKLTVLDKTHTCPPCPAPEAAGAPSVFLFPPKPKDTLMISRTPEVTCVVVDVSHEDPEVKFNWYVDGVEVHNAKTKPREEQYNSTYRVVSVLTVLHQDWLNGKEYKCKVSNKALPAPIEKTISKAKGQPREPQVCTLPPSRDELTKNQVSLSCAVKGFYPSDIAVEWESNGQPENNYKTTPPVLDSDGSFFLVSKLTVDKSRWQQGNVFSCSVMHEALHNHYTQKSLSLSPGWSHPQFEK
% Emax BMP9: 24%
Emax (RLU): 663000 RLU
